Results as given in article PMC8808741.

Key:
thrombin (FIIa) = thrombin (FIIa) (UniProt P00734;P00734 315-363;364-622); test: filter binding
FVIII = FVIII (UniProt P00451 20-2351); test: filter binding
prothrombin (FII) = prothrombin (FII) (UniProt P00734 44-622); test: filter binding
FX = FX (UniProt P00742;P00742 41-179;183-488); test: filter binding
[1] = molecular target: T1, modified FV (B-domain-truncated factor V) (human, UniProt P12259 29-838+1520-2224, R737Q;R1573Q;internal_change); test: filter binding
FXa = FXa (UniProt P00742;P00742 41-179;235-488); test: filter binding
FVa (activated factor V) [2] = molecular target: T2, FVa (activated factor V) (human, UniProt P12259;P12259 29-737;1574-2224); test: filter binding
FVa (activated factor V) [3] = molecular target: T2, FVa (activated factor V); test: filter binding; remark: listed apart in the source
FVa heavy chain = FVa heavy chain (UniProt P12259 29-737); test: SPR
FVa light chain = FVa light chain (UniProt P12259 1574-2224); test: SPR
FVa (activated factor V) [4] = molecular target: T2, FVa (activated factor V); test: SPR
[5] = molecular target: T1, modified FV (B-domain-truncated factor …); test: SPR

Chain of FXa (P00742 41-179, chain 1 of 2): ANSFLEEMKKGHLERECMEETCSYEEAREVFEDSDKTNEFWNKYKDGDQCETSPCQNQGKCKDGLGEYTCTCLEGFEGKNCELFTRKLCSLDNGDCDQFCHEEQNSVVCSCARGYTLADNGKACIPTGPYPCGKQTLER
Chain of FXa (P00742 235-488, chain 2 of 2): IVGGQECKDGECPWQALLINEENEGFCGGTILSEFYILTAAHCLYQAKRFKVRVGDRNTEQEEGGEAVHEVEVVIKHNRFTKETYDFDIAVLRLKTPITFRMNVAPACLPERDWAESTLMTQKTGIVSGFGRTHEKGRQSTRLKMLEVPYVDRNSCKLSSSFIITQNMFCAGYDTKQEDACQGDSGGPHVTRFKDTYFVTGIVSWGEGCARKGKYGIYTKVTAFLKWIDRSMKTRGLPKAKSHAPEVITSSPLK
Chain of FX (P00742 41-179, chain 1 of 2): as the sequence (P00742 41-179, chain 1 of 2) above
Chain of FX (P00742 183-488, chain 2 of 2): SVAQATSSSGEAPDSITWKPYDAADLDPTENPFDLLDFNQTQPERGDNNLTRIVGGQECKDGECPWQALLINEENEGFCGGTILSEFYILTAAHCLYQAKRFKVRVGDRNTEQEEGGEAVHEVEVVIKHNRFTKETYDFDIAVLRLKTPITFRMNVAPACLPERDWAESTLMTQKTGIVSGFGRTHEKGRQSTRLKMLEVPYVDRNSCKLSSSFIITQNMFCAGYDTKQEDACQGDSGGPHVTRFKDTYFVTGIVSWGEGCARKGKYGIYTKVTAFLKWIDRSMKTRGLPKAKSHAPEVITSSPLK
Chain of FVIII (P00451 20-2351): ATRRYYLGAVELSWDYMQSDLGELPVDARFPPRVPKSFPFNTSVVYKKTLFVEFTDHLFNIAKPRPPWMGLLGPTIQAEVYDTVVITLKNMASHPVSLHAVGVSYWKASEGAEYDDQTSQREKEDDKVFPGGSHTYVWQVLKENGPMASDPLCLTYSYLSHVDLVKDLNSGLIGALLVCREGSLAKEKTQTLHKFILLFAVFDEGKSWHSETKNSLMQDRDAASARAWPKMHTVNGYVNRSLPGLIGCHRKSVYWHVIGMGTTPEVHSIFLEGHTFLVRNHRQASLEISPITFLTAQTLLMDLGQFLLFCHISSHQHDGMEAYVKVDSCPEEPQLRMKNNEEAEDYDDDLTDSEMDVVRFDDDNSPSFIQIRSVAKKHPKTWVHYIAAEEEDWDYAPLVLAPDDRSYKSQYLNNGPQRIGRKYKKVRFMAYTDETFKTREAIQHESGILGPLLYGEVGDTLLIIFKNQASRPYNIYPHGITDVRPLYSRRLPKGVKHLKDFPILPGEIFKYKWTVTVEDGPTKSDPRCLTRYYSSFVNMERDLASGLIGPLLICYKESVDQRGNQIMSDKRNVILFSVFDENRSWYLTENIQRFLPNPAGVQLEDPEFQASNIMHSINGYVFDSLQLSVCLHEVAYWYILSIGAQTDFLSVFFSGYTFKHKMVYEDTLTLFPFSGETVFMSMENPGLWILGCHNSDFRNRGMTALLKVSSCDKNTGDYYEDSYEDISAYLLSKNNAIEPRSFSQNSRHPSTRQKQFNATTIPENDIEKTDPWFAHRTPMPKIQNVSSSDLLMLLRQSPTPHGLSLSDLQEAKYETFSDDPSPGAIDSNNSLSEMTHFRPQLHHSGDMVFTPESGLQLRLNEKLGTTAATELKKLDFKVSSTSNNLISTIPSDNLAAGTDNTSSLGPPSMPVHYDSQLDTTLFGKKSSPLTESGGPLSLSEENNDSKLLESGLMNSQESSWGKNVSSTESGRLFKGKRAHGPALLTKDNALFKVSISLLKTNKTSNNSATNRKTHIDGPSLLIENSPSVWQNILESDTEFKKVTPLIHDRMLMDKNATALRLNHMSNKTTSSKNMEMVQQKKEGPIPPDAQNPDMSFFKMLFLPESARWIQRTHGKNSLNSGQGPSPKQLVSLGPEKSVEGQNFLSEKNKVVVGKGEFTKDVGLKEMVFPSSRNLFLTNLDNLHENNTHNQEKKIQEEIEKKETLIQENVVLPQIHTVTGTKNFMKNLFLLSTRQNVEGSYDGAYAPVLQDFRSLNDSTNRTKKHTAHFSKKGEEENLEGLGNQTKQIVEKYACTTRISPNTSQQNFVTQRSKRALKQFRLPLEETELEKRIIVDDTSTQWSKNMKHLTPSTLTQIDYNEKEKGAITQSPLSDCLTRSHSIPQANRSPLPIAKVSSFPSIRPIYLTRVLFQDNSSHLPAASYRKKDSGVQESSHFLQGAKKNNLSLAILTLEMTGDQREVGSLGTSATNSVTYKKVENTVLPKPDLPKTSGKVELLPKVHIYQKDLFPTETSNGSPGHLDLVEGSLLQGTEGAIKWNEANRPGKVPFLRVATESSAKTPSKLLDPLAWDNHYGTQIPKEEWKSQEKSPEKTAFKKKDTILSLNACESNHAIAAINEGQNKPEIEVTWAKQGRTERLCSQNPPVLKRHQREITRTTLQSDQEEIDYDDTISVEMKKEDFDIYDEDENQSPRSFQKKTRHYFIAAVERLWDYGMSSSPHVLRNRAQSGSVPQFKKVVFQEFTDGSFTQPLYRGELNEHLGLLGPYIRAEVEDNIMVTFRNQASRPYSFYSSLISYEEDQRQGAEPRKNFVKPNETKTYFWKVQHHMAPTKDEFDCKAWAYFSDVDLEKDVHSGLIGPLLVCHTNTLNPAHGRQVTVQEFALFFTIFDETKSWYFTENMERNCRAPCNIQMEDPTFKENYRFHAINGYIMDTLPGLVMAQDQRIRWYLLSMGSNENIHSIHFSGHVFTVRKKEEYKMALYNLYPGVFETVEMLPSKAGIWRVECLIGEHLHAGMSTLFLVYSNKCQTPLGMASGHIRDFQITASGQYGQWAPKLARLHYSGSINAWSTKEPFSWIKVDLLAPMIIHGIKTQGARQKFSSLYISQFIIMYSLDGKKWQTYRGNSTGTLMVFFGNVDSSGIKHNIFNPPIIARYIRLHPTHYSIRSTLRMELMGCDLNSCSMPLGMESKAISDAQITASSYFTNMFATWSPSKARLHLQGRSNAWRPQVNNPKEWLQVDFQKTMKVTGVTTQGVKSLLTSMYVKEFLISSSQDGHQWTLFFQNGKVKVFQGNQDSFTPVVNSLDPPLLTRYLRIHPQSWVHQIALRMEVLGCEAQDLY

Binder	binding result (thrombin (FIIa))	binding result (FVIII)	binding result (prothrombin (FII))	binding result (FX)	Kd [1]	binding result (FXa)	Kd (FVa (activated factor V) [2])	Kd (FVa (activated factor V) [3])	Kd (FVa heavy chain)	Kd (FVa light chain)	Kd (FVa (activated factor V) [4])	Kd [5]
T18.3 (structured_RNA, all C and U 2'-fluoro) RNA: GGACUUGGAUAACCUCACCGCAAUGGCGGCUUGUCAGACGACUCGCUGAGGAUCCGAG	no binding	no binding	no binding	no binding	28 nM	no binding	0.99 nM	–	–	–	–	–
Mut1 (structured_RNA, all C and U 2'-fluoro) RNA: GGACUUGGAUAACCUCACCGCAAUGGCGGAGGGUCAGACGACUCGCUGAGGAUCCGAG	–	–	–	–	410 ± 46 nM	–	–	359 ± 323 nM	–	–	–	–
T18.3-Bio (structured_RNA, all C and U 2'-fluoro) RNA: GGACUUGGAUAACCUCACCGCAAUGGCGGCUUGUCAGACGACUCGCUGAGGAUCCGAG	–	–	–	–	–	–	–	–	113 ± 43 nM	3.33 ± 0.69 nM	4.73 ± 0.69 nM	11.4 ± 3 nM
